Literature values in publication PMC3720600.

Target: Cys145 (UniProt position 145, PILIPCHRVVC)

Q: For “O6-methylguanine-DNA methyltransferase (MGMT; O6-alkylguanine-DNA alkyltransferase, AGT) (Homo sapiens)”, which pKa is on record?
A: Its pKa is 4.8.
